Consider one molecule from PMC3395087 (The EMBO Journal, 2012).

The target in the experiment is GST–CDK2/His–CyclinA complex (human | bovine, UniProt P24941 1-298; P30274 1-430). The experiment in a line: co-IP.
Chain of GST–CDK2/His–CyclinA complex (P30274 whole entry, one chain of several): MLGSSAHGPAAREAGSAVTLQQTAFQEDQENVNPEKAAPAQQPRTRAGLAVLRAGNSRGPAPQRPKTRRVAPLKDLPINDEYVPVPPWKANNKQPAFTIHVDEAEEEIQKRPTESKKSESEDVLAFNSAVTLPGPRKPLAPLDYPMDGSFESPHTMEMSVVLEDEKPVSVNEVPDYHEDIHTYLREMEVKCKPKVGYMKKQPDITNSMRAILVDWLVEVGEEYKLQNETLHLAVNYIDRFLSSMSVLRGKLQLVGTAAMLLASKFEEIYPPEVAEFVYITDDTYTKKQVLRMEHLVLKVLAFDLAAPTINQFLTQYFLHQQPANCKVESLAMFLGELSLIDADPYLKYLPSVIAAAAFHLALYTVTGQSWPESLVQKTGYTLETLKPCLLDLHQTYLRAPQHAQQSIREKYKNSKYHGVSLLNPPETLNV

B1: GST–p57 (mouse, wild type) phosphorylated in vitro by activated p38 SAPK (natural protein)
chain: MERLASSDTFPVIARSSACRSLFGPVDHEELGRELRMRLAELNAEDQNRWDFNFQQDVPLRGPGRLQWMEVDSESVPAFYRETVQVGRCRLQLGPRPPPVAVAVIPRSGPPAGEAPDGLEEAPEQPPSAPASAVVAEPTPPATPAPASDLTSDPIPEVTLVATSDPTPDPIPDANPDVATRDGEEQVPEQVSEQGEESGAEPGDELGTEPVSEQGEEQGAEPVEEKDEEPEEEQGAEPVEEQGAEPVEEQNGEPVEEQDENQEQRGQELKDQPLSGIPGRPAPGTAAANANDFFAKRKRTAQENKASNDVPPGCPSPNVAPGVGAVEQTPRKRLR
modifications: phosphothreonine at T143 (phosphorylated in vitro by activated GST–p38 SAPK)
As to B1, the “fold increase of binding against non-phosphorylated GST–p57” value was ~4 fold.
